pIC50: −log10 of the molar value. Where two headings read alike, the source gives them in different places.
Assays:
[1] = molecular target: integrin α4β1 on Jurkat cells (UniProt P13612)
[2] = molecular target: integrin α4β7 (UniProt P13612)
[3] = molecular target: integrin αIIbβ3 (human) (UniProt P08514); assay: cell-based or functional assay
[4] = molecular target: integrin α4β1 on Jurkat cells (UniProt P13612); assay: inhibition of cell adhesion: Jurkat cells to CS-1
[5] = molecular target: integrin α6β1 on K562 cells transfected with α6 (UniProt P23229); assay: inhibition of cell adhesion: K562 (α6+) cells to laminin
[6] = molecular target: integrin α4β7 (UniProt P13612); assay: inhibition of cell adhesion: RPMI 8866 cells to MadCAM-1
[7] = molecular target: integrin α4β1 on Jurkat cells (UniProt P13612); assay: inhibition of cell adhesion: Jurkat cells to immobilized VCAM-1
[8] = molecular target: integrin αIIbβ3 (human) (UniProt P08514); assay: inhibition of cell adhesion: A5 (CHO αIIbβ3+) cells to immobilized fibrinogen
[9] = molecular target: integrin αvβ3 (human) (UniProt P06756); assay: inhibition of cell adhesion: VNRC3 (CHO αvβ3+) cells to immobilized vitronectin
Chain of integrin αvβ3 (human) (P06756 31-1048, chain 1 of 2): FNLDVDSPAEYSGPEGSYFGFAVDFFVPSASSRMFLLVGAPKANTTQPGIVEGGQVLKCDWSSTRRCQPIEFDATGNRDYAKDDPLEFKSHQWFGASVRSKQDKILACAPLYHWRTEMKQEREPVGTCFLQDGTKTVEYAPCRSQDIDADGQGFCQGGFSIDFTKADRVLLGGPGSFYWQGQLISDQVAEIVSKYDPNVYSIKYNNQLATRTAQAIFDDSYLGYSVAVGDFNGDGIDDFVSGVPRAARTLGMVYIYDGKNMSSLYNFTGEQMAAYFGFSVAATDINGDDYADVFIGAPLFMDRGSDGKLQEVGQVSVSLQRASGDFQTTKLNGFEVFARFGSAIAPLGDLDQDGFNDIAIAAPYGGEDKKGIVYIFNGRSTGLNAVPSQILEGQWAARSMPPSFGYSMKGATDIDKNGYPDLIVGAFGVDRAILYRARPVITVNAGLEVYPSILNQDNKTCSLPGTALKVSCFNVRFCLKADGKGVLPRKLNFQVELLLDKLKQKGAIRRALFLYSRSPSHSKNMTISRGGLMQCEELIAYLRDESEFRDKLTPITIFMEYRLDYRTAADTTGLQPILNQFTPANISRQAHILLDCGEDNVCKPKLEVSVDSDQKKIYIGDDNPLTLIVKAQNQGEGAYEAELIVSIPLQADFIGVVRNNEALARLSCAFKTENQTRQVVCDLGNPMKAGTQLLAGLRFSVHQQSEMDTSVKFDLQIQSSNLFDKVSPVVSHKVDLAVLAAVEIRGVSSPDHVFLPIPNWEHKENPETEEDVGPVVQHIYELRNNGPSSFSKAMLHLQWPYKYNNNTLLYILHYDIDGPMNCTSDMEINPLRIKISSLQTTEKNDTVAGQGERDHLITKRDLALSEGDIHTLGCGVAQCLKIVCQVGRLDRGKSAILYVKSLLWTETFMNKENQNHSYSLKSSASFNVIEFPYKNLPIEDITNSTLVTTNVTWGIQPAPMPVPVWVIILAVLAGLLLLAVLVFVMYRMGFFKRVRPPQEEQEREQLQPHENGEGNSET
Chain of integrin αvβ3 (human) (P05106 27-788, chain 2 of 2, further chain): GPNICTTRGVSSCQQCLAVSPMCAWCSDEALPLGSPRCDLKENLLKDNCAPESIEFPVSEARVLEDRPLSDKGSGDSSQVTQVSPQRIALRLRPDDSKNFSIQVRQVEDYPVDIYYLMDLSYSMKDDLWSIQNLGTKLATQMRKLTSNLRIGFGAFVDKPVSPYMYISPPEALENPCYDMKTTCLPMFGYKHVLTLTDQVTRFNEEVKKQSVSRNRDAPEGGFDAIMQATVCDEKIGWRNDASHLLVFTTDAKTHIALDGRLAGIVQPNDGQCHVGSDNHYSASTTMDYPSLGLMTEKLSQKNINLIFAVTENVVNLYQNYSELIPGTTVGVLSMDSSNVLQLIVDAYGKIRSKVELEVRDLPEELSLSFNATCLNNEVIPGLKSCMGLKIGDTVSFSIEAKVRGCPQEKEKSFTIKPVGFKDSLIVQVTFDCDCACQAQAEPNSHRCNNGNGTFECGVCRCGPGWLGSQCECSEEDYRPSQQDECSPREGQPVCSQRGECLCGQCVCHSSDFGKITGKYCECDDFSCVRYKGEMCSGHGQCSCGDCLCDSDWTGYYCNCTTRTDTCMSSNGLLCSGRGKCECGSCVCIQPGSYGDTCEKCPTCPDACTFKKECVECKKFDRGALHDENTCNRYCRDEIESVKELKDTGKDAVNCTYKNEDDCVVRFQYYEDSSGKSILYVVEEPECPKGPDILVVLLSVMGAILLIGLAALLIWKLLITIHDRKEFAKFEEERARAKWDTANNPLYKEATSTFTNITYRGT

Chain of integrin α6β1 on K562 cells transfected with α6 (P23229 24-1130, chain 1 of 2): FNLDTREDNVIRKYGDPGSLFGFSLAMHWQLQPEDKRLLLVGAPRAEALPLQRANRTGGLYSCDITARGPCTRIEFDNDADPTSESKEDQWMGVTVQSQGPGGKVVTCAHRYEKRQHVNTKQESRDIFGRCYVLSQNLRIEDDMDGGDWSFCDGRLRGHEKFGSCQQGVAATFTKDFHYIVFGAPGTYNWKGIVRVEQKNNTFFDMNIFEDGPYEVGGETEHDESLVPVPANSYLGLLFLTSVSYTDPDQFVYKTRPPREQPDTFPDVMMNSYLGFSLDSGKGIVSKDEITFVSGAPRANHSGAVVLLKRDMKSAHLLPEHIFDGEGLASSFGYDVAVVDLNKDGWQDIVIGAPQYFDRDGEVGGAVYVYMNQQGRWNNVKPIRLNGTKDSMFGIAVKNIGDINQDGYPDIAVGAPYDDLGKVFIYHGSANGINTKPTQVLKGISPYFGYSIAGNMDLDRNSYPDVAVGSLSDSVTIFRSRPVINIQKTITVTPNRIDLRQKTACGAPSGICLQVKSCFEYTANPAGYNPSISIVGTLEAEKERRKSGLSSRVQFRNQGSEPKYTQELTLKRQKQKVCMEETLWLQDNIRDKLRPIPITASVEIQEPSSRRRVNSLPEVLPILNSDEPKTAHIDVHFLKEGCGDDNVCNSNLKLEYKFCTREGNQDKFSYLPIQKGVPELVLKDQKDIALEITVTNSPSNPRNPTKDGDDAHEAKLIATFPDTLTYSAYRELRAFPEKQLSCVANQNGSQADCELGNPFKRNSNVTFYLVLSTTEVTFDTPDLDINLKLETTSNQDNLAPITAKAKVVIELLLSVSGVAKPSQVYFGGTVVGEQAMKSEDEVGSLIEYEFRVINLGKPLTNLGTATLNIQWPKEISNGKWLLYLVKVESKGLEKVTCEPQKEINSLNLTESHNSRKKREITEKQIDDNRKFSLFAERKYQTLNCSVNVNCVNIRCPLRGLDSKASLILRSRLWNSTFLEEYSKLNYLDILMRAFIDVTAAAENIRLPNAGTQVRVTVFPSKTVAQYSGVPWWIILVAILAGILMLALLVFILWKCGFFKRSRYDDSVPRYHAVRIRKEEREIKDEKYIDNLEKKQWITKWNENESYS
Chain of integrin α6β1 on K562 cells transfected with α6 (P05556 21-798, chain 2 of 2, further chain): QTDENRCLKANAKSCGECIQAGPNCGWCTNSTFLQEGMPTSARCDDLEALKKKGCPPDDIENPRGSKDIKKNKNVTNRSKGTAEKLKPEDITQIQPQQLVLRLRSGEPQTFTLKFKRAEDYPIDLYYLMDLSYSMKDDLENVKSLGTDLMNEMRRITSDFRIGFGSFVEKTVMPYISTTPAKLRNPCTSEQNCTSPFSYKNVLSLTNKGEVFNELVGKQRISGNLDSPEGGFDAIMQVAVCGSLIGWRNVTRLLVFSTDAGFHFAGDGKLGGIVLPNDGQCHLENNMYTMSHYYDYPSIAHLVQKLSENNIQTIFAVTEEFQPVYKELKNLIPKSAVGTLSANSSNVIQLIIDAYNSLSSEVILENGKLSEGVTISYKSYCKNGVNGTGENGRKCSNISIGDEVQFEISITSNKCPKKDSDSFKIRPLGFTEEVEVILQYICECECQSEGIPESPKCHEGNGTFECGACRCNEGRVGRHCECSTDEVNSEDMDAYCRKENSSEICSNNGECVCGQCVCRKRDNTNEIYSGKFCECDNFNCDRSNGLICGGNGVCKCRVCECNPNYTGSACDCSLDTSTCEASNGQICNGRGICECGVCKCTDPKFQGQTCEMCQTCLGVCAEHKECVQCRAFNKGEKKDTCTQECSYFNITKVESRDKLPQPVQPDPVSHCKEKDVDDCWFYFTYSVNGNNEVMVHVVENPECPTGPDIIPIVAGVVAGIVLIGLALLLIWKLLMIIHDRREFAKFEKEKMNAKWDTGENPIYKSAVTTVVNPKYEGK

Substance	pIC50 [1]	pIC50 [2]	IC50, ADP PA (ADP-induced platelet aggregation in platelet rich plasma) [3] [nM]	pIC50 [4]	pIC50 [5]	pIC50 [6]	pIC50 [7]	pIC50 [8]	pIC50 [9]
EC-3 protein, heterodimeric disintegrin from Echis carinatus suchoreki venom (from UniProt P81630 1-67; P81631 1-67)	7.55	8.22	1000	7.00	< 5.00	8.30	7.60	6.30	< 5.00
Echistatin (from UniProt P0C6R5 4-52)	–	–	130	–	< 5.00	< 5.00	< 5.00	7.30	7.30

— patent publication US6818617
